Test results reported in the supplement of paper PMC7877785.
± gives the uncertainty stated by the source.

Assay: self-splicing fitness, log relative to wild type (ln ratio); higher = more splicing; Tetrahymena group I intron in knt gene, E. coli kanamycin selection, DiMSum; sequences stand for … in CUCUCU…GGAGGGAAAAGUUAUCAGGCAUGCACCUGGUAGCUAGUCUUUAAACCAAUAGAUUGCAUCGGUUUAAAAGGCAAGACCGUCAAAUUGCGGGAAAGGGGUCAACAGCCGUUCAGUACCAAGUCUCAGGGGAAACUUUGAGAUGGCCUUGCAAAGGGUAUGGUAAUAAGCUGACGGACAUGGUCCUAACCACGCAGCCAAGUCCUAAGUCAACAGAUCUUCUGUUGAUAUGGAUGCAGUUCACAGACUAAAUGUCGGUCGGGGAAGAUGUAUUCUUCUCAUAAGAUAUAGUCGGACCUCUCCUUAAUGGGAGCUAGCGGAUGAAGUGAUGCAACACUGGAGCCGCUGGGAACUAAUUUGUAUGCGAAAGUAUAUUGAUUAGUUUUGGAGUACUCGUGGUCG
How it was run: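 A randomised library covering all eight P1ex-region intron nucleotides was built with the intron in the knt kanamycin-resistance gene on pET-22b(+) and held in E. coli BL21(DE3). Cells were grown overnight at 37°C or 30°C on LB agar, with or without 25 μg/mL kanamycin, plus 100 μg/mL carbenicillin, 50 μM IPTG and 0.2% rhamnose, and pooled colonies were amplicon-sequenced on an Illumina HiSeq 2500. DiMSum fitness is the error-weighted combination of wild-type-normalised replicate fold changes, kanamycin versus none.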

| Sequence | self-splicing fitness (ln) (30 °C) | self-splicing fitness (ln) (37 °C) |
| --- | --- | --- |
| GACAAGCAAUAUUACGUCAA | -2.87 ± 0.15 | -1.95 ± 0.1 |
| GACAAGCAAUAUUACGUCUG | -3.26 ± 0.16 | -2.89 ± 0.15 |
| GACAAGCAAUAUUACGUGAA | -1.81 ± 0.076 | -1.11 ± 0.089 |
| GACAAGCAAUAUUACGUUCA | -1.21 ± 0.074 | -0.263 ± 0.072 |
| GACAAGCAAUAUUACGUUCU | -2.9 ± 0.13 | -1.45 ± 0.12 |
| GACAAGCAAUAUUACGUUUC | -4.22 ± 0.19 | -2.25 ± 0.16 |
| GACCAGCAAUAUUACGAGGA | -1.04 ± 0.12 | -0.408 ± 0.11 |
| GACCAGCAAUAUUACGCAAU | -0.846 ± 0.062 | -0.343 ± 0.077 |
| GACCAGCAAUAUUACGCAGA | -1.57 ± 0.11 | -0.378 ± 0.093 |
| GACCAGCAAUAUUACGCCAU | -3.59 ± 0.17 | -2.09 ± 0.13 |
| GACCAGCAAUAUUACGCCCA | -0.923 ± 0.16 | 0.179 ± 0.19 |
| GACCAGCAAUAUUACGCCUA | -0.572 ± 0.11 | 0.226 ± 0.12 |
| GACCAGCAAUAUUACGCUCG | -0.964 ± 0.13 | -0.766 ± 0.12 |
| GACCAGCAAUAUUACGCUUU | -0.00419 ± 0.078 | -0.213 ± 0.1 |
| GACCAGCAAUAUUACGGAAG | -1.42 ± 0.08 | -0.75 ± 0.088 |
| GACCAGCAAUAUUACGGCGA | -0.195 ± 0.075 | 0.13 ± 0.11 |
| GACCAGCAAUAUUACGGGCA | -0.306 ± 0.078 | 0.16 ± 0.096 |
| GACCAGCAAUAUUACGGGUG | -1.85 ± 0.068 | -1.36 ± 0.072 |
| GACCAGCAAUAUUACGGUGG | -2.38 ± 0.077 | -0.875 ± 0.087 |
| GACCAGCAAUAUUACGGUUC | -5.29 ± 0.25 | -2.73 ± 0.14 |
| GACCAGCAAUAUUACGGUUU | -2.44 ± 0.083 | -0.744 ± 0.079 |
| GACCAGCAAUAUUACGUAGG | -2.31 ± 0.075 | -1.62 ± 0.09 |
| GACCAGCAAUAUUACGUAUG | -1.75 ± 0.065 | -0.824 ± 0.076 |
| GACCAGCAAUAUUACGUCAG | -4.79 ± 0.32 | -2.85 ± 0.27 |
| GACGAGCAAUAUUACGAACA | -0.347 ± 0.3 | -1.44 ± 0.3 |

| Sequence | self-splicing fitness (ln) (30 °C) | self-splicing fitness (ln) (37 °C) |
| --- | --- | --- |
| GACGAGCAAUAUUACGACAC | -3.03 ± 0.49 | -1.55 ± 0.15 |
| GACGAGCAAUAUUACGACUU | -0.586 ± 0.17 | 0.25 ± 0.19 |
| GACGAGCAAUAUUACGAGAG | -3.77 ± 0.34 | -0.809 ± 0.18 |
| GACGAGCAAUAUUACGAGCG | -1.88 ± 0.23 |  |
| GACGAGCAAUAUUACGAGGG | -3.12 ± 0.25 | -2.97 ± 0.35 |
| GACGAGCAAUAUUACGAUAA |  | -2.09 ± 0.43 |
| GACGAGCAAUAUUACGAUAC | -4.85 ± 0.28 | -2.16 ± 0.2 |
| GACGAGCAAUAUUACGAUAG |  | -3.92 ± 0.46 |
| GACGAGCAAUAUUACGAUCU | -2.04 ± 0.15 | -1.13 ± 0.15 |
| GACGAGCAAUAUUACGAUUG | -4.17 ± 0.27 | -1.09 ± 0.13 |
| GACGAGCAAUAUUACGCACG | -3.63 ± 0.23 | -2.61 ± 0.25 |
| GACGAGCAAUAUUACGCGAU | -2.42 ± 0.26 | -2.36 ± 0.45 |
| GACGAGCAAUAUUACGGAGA |  | -2.9 ± 0.38 |
| GACGAGCAAUAUUACGGCAU | -1.4 ± 0.14 | -0.955 ± 0.17 |
| GACGAGCAAUAUUACGGUGA | -3.52 ± 0.23 | -2.05 ± 0.26 |
| GACGAGCAAUAUUACGGUUG | -2.82 ± 0.13 | -1.76 ± 0.13 |
| GACGAGCAAUAUUACGUCCG | -3.22 ± 0.27 | -2.69 ± 0.36 |
| GACGAGCAAUAUUACGUCGC | -3.25 ± 0.47 | -0.634 ± 0.35 |
| GACGAGCAAUAUUACGUGUU | -3.18 ± 0.16 | -3.09 ± 0.19 |
| GACUAGCAAUAUUACGAACA | -1.02 ± 0.16 | -0.254 ± 0.17 |
| GACUAGCAAUAUUACGACCA | -0.781 ± 0.17 | 0.287 ± 0.18 |
| GACUAGCAAUAUUACGACCU | 0.114 ± 0.093 | -0.756 ± 0.095 |
| GACUAGCAAUAUUACGACUU | 0.355 ± 0.06 | 0.58 ± 0.08 |
| GACUAGCAAUAUUACGAGCG | -1.57 ± 0.1 | -0.592 ± 0.12 |
